These results are taken from patent publication US20210077592A1, “COMPOSITION TO PREVENT INTESTINAL DAMAGE” (FUSION FARM S.R.L. SEMPLIFICATA, priority 2017, published 2021).

Data set [1] has as its system Caco-2 cells. Nature of the data set: Lucifer Yellow (LY) assay of paracellular permeability in Caco-2 intestinal damage model. Type of data set: cell-based. The method, then:
A protocol was developed based on Caco-2 cell inserts model (CACOREADY™ cells, lot no. 24 676 101716 and no. 24 680 111416, Readycell manufacturer) consisting in two steps:
1. Induction of epithelial damage (40 h incubation in glutamine free medium followed by stress induced by 60 mM ethanol for 4 h)
2. Evaluation of the single products first, and then applied in combination during stress induced by the absence of glutamine (60 h), and with subsequent stress induced by ethanol, to evaluate the efficacy in preventing damage. […]
Cells without damage induction (NC=without damage) and with damage induction (PC) were evaluated with the Lucifer Yellow (LY) assay, which verifies the integrity of the cellular junctions in presence of the test substance. […]
According to the experimental protocol, to evaluate the efficacy of the composition of the invention in damage prevention, sodium butyrate (2 mM concentration) and lactoferrin (400 μg/ml concentration), either alone or in combination, were applied on Caco-2 cells during stress induced by absence of glutamine, increasing the time of said deprivation, with respect to the conditions tested during the development of the model, and therefore of stress induction, to 60 hours, to make more evident differences in cells behavior in the different treatment situations. […] The parameters were evaluated at the end. […]
On the technique in general: Caco-2 monolayers are a common model of the intestinal barrier.

The subject of data set [2] is Occludin and Zonula Occludens in Caco-2 cells. In words: Fluorescence immunolabeling of Occludin and Zonula Occludens in Caco-2 cells after damage induction. Type of data set: cell-based. The conditions noted are these: pretreatment 60 h without glutamine, then 60 mM ethanol 4 h. The method, then:
As it can be seen by FIG. 1, the damage induced an increase in permeability. The same cells without damage induction (NC) and with damage induction (PC), as indicated above, were further evaluated by fluorescence immunolabeling of Occludina and Zonula Occludens (proteins present in the intestinal membrane intracellular junctions).
(§1) According to the experimental protocol, to evaluate the efficacy of the composition of the invention in damage prevention, sodium butyrate (2 mM concentration) and lactoferrin (400 μg/ml concentration), either alone or in combination, were applied on Caco-2 cells during stress induced by absence of glutamine, increasing the time of said deprivation, with respect to the conditions tested during the development of the model, and therefore of stress induction, to 60 hours, to make more evident differences in cells behavior in the different treatment situations. At the end of 60 hours, the products were removed, and damage was induced for 4 h with 60 mM ethanol. The parameters were evaluated at the end.
To confirm the observed behavior, an evaluation using fluorescence immunolabeling of Occludin and Zonula Occludens was also performed.

Data set [3] is described as follows: Solubility of lactoferrin in aqueous solution in the presence of sodium butyrate. Type of data set: physicochemical. The settings on record: with or without added sodium butyrate. The method, then:
Various solutions, with increasing ratios between sodium butyrate amount and lactoferrin amount, were prepared to verify the possible effect of sodium butyrate addition on lactoferrin solubility in aqueous solution.
In particular, ten different mixtures were prepared, whose weight rations are set out in the following Table 1, and the presence of undissolved body of lactoferrin was observed as a function of the increasing amount of sodium butyrate added to the solution.

The test system of data set [4] is Caco-2 cells. In words: Electron Microscopy (SEM) of microvilli of Caco-2 cells after damage induction. Type of data set: cell-based. The settings on record: pretreatment 60 h without glutamine, then 60 mM ethanol 4 h, 750x-10000x. The method, then:
The same cells without damage induction (NC) and with damage induction (PC), as indicated above, were finally evaluated by Electron Microscopy (SEM) at different magnifications.
as §1
The same cells were finally evaluated also by Electron Microscopy SEM, at various magnifications.

B1: lactoferrin (protein, UniProt P02788 20-710, looked up)
Lactotransferrin: GRRRSVQWCAVSQPEATKCFQWQRNMRKVRGPPVSCIKRDSPIQCIQAIAENRADAVTLDGGFIYEAGLAPYKLRPVAAEVYGTERQPRTHYYAVAVVKKGGSFQLNELQGLKSCHTGLRRTAGWNVPIGTLRPFLNWTGPPEPIEAAVARFFSASCVPGADKGQFPNLCRLCAGTGENKCAFSSQEPYFSYSGAFKCLRDGAGDVAFIRESTVFEDLSDEAERDEYELLCPDNTRKPVDKFKDCHLARVPSHAVVARSVNGKEDAIWNLLRQAQEKFGKDKSPKFQLFGSPSGQKDLLFKDSAIGFSRVPPRIDSGLYLGSGYFTAIQNLRKSEEEVAARRARVVWCAVGEQELRKCNQWSGLSEGSVTCSSASTTEDCIALVLKGEADAMSLDGGYVYTAGKCGLVPVLAENYKSQQSSDPDPNCVDRPVEGYLAVAVVRRSDTSLTWNSVKGKKSCHTAVDRTAGWNIPMGLLFNQTGSCKFDEYFSQSCAPGSDPRSNLCALCIGDEQGENKCVPNSNERYYGYTGAFRCLAENAGDVAFVKDVTVLQNTDGNNNEAWAKDLKLADFALLCLDGKRKPVTEARSCHLAMAPNHAVVSRMDKVERLKQVLLHQQAKFGRNGSDCPDKFCLFQSETKNLLFNDNTECLARLHGKTTYEKYLGPQYVAGITNLKKCSTSPLLEACEFLRK
notes: antimicrobial and iron-carrying glycoprotein; B=400 μg/ml lactoferrin
As for B1, the “reduction in LY flux with respect to positive control (PC)” value in data set [1] (product applied during 60 h glutamine deprivation, then 60 mM ethanol 4 h, 2 mM sodium butyrate and/or 400 μg/ml lactoferrin) is “about 12%”. Further, the “permeability (LY), result in words” value in data set [1] (treatment at the same time as damage induction) is listed as “not substantially changed compared to the negative control”. Besides, the “fluorescence intensity / expression of tight junction proteins (Occludin, Zonula Occludens), result in words” value in data set [2] is “good level of expression of the tight junctions' markers”. In data set [3], the “dissolution of lactoferrin in aqueous solution, result in words” value is “completely undissolved body in suspension”. Besides, the “effect on microvilli / villous atrophy by SEM, result in words” value in data set [4] is given as “positive effect on the villi functionality”.
